Reference: patent publication US20260055186A1 (REPERTOIRE IMMUNE MEDICINES, published 2026)

Tests used:
[1] = target: T1, human CD8 on human T cells (human, UniProt P01732 22-235); test: flow cytometry on human CD8+ T cells, titration
T1 construct: whole, on cells; the antibodies were raised against human CD8 alpha; also called CD8 on human CD8+ T cells; hCD8
Protocol: (§1) The 24 humanized 02A01-derived anti-CD8 antibodies (excluding 02A01-VK3(D30E/N35Q)) were screened for their ability to bind human CD8 by evaluating binding to CD8+ T cells. The non-humanized parent (“02-Parent”) and the non-humanized parent comprising a heavy chain M39L liability mutation (“02-Parent-VH-M39L”) were used as controls. […] Cells were washed with 1×phosphate buffered saline (PBS) containing 1 mg/mL bovine serum albumin (PBS/BSA) and then stained with a 1:100 dilution of DyLight650-conjugated anti-human IgG H+L polyclonal antibody (ThermoFisher cat. no. Sa5-10129) in PBS/BSA. Following a 20-30 min incubation at 4° C., the cells were washed once with PBS/BSA, and then resuspended in PBS/BSA for analysis on a FACSCelesta using Diva software (BD Biosciences). The resulting data were analyzed using FlowJo. Data were quantified and reported as Max fluorescence intensity (MFI) of human IgG-Fc. […] Complete replacement of the HCDR1 (antibodies comprising VH5) eliminated binding to the CD8+ T cells.
(§2) Binding to human CD8+ T cells was tested at 7 serial 5-fold dilutions of each tested humanized 02A01 variant (from 50 nM to 3.2 pM). The resulting data were analyzed using FlowJo.

[2] = target: T1, human CD8 on human T cells; test: flow cytometry on human CD8+ T cells, titration, apparent KD
Protocol: as §1, §2

human CD8α/β [3] = target: T2, human CD8α/β (human, UniProt P01732 22-182; P10966 22-170); test: SPR, antibody captured on Protein A chip, hCD8α/β as analyte
T2 construct: Soluble heterodimer used in SPR and in the Carterra binning (there printed only as CD8α/β); also called hCD8α/β
Protocol: (§3) The binding affinities of six of the humanized anti-CD8 antibodies to human CD8 were also determined by surface plasmon resonance (SPR). Briefly, equilibrium dissociation constants for human CD8α/β were determined using a real-time SPR biosensor using a Protein A Sensor Chip (Cytiva) to capture purified anti-CD8 monoclonal antibodies at a concentration of 0.5 nM. SPR binding studies were performed in a buffer composed of Phosphate buffered saline, pH 7.2 containing 0.05% v/v Surfactant P20 (PBS-P20 buffer). Different concentrations of hCD8α/β prepared in PBS-P20 running buffer (ranging from 500 nM to 7.8 nM, 2-fold dilutions) were injected over the anti-CD8 monoclonal antibody captured surface. Association of hCD8α/β to the captured monoclonal antibody was monitored for 400 seconds and the dissociation of hCD8α/β in PBS-P20 running buffer was monitored for 600 sec. All of the binding kinetics experiments were performed at 25° C. Kinetic association (kₐ) and dissociation (kd) rate constants were determined by fitting the real-time sensorgrams to a 1:1 binding model using Scrubber 2.0c curve fitting software.

human CD8α/β [4] = target: T2, human CD8α/β; test: SPR, antibody captured on Protein A chip, hCD8α/β as analyte, 1:1 fit
Protocol: as §3

[5] = target: T1, human CD8 on human T cells; test: cell-based or functional assay

T1 sequence (P01732 22-235): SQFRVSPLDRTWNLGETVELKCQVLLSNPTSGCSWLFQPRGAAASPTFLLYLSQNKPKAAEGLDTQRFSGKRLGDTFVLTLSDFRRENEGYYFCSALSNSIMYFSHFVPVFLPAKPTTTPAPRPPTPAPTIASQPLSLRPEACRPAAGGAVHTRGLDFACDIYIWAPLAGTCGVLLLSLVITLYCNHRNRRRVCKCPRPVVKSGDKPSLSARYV
T2 sequence (P01732 22-182, chain 1 of 2): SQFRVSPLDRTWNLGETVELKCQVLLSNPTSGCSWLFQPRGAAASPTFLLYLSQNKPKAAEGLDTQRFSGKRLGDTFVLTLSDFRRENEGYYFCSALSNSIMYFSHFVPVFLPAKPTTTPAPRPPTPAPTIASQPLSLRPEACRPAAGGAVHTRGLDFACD
T2 sequence (P10966 22-170, chain 2 of 2): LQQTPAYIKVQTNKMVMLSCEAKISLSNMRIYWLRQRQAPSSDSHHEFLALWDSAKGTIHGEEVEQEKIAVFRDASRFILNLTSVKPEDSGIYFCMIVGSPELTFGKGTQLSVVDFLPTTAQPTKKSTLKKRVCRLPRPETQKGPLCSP

Binder	Fold Change to Parental Apparent KD [1]	Maximum CD8+ T cell Binding (MFI) [1]	Kd [2]	Fold Change to Parental Calculated KD (human CD8α/β [3])	Kd (human CD8α/β [4])	EC50 of pSTAT4 signaling in human CD8+ T cells [5]
humanized 02A01-VH1-VK4 (antibody, human IgG1, V domains shown, human IgG1 format; also called 02-VH1-VK4) VH: EVQLVQSGPEVVKPGATLKISCKASGYTFTDFTMHWVKQAPGKSLEWIGLVNPNNGGNIYNQNFKGRATLTVDTSTSTAYMELSSLRSEDTSVYYCGRVPLYTSHGMDYWGQGTLVTVSS VL: EIVLTQSPATLSVSPGERATISCRASESVDSYDINSMHWYQQKPGQAPRLLIYDASNRATGIPARFSGSGSRTDFTLTISSVEPEDFATYYCQQSNEDPLTFGQGTKLEIK	0.89 fold	2050 MFI	0.051 nM			
02A01-IgG-IL12 (HC) (other) VH: EVQLQQSGPELVKPGASLKISCKASGYTFTDFTMHWVKQSHGKSLEWIGLVNPNNGGNIYNQNFKGKATLTVDTSSSTAYMELRSLTSEDSSVYYCGRVPLYTSHGMDYWGQGTSVTVSS VL: DIVLTQSPAFLAVSLGQRATISCRASESVDSYDINSMHWYQQKPGQPPKLLIYRASHLQSGIPARFSGSGSRTDFTLTINFVEADDVATYYCQQSNEDPLTFGAGTKLELK						3.03 pM
02A01-Fab-Fc-IL12 (LC) (other) VH: EVQLQQSGPELVKPGASLKISCKASGYTFTDFTMHWVKQSHGKSLEWIGLVNPNNGGNIYNQNFKGKATLTVDTSSSTAYMELRSLTSEDSSVYYCGRVPLYTSHGMDYWGQGTSVTVSS VL: DIVLTQSPAFLAVSLGQRATISCRASESVDSYDINSMHWYQQKPGQPPKLLIYRASHLQSGIPARFSGSGSRTDFTLTINFVEADDVATYYCQQSNEDPLTFGAGTKLELK						2.11 pM
02A01-Fab-IL12 (LC) (other) VH: EVQLQQSGPELVKPGASLKISCKASGYTFTDFTMHWVKQSHGKSLEWIGLVNPNNGGNIYNQNFKGKATLTVDTSSSTAYMELRSLTSEDSSVYYCGRVPLYTSHGMDYWGQGTSVTVSS VL: DIVLTQSPAFLAVSLGQRATISCRASESVDSYDINSMHWYQQKPGQPPKLLIYRASHLQSGIPARFSGSGSRTDFTLTINFVEADDVATYYCQQSNEDPLTFGAGTKLELK						1.74 pM
03A01-IgG-IL12 (HC) (other) VH: DVQFQESGPGLVKPSQSLSLTCTVTGYSITSDFAWNWIRQFPGNELEWMGYISYSGDTNYNPSLRSRISITRDTSKNQFFLQLDSVTTEDTATYYCTIRGYYTDSAFVFWGQGTLVTVSA VL: DIQMTQSSSYLSVSLGGRVTITCKASDHINNWLAWYQQKPGNAPRLLISGATSLETGVPSRFTGSGSGLDYTLSITSLQTEDVATYYCQQYWNSPFTFGSGTKLEIK						15.7 pM
03A01-Fab-IL12 (LC) (other) VH: DVQFQESGPGLVKPSQSLSLTCTVTGYSITSDFAWNWIRQFPGNELEWMGYISYSGDTNYNPSLRSRISITRDTSKNQFFLQLDSVTTEDTATYYCTIRGYYTDSAFVFWGQGTLVTVSA VL: DIQMTQSSSYLSVSLGGRVTITCKASDHINNWLAWYQQKPGNAPRLLISGATSLETGVPSRFTGSGSGLDYTLSITSLQTEDVATYYCQQYWNSPFTFGSGTKLEIK						11.1 pM
03A01-Fab-Fc-IL12 (LC) (other) VH: DVQFQESGPGLVKPSQSLSLTCTVTGYSITSDFAWNWIRQFPGNELEWMGYISYSGDTNYNPSLRSRISITRDTSKNQFFLQLDSVTTEDTATYYCTIRGYYTDSAFVFWGQGTLVTVSA VL: DIQMTQSSSYLSVSLGGRVTITCKASDHINNWLAWYQQKPGNAPRLLISGATSLETGVPSRFTGSGSGLDYTLSITSLQTEDVATYYCQQYWNSPFTFGSGTKLEIK						13.4 pM

Now from value to binder:

Fold Change to Parental Apparent KD [1]	Maximum CD8+ T cell Binding (MFI) [1]	Kd [2]	Fold Change to Parental Calculated KD (human CD8α/β [3])	Kd (human CD8α/β [4])	EC50 of pSTAT4 signaling in human CD8+ T cells [5]	Binder
1.18 fold	2880 MFI	0.067 nM				humanized 02A01-VH2-VK3 (antibody, human IgG1, V domains shown, human IgG1 format; also called 02-VH2-VK3) VH: EVQLVQSGAEVKKPGATLKISCKASGYTFTDFTMHWVQQAPGKGLEWIGLVNPNNGGNIYNQNFKGRATLTVDTSTSTAYMELSSLRSEDTSVYYCGRVPLYTSHGMDYWGQGTLVTVSS VL: EIVLTQSPATLSLSPGERATISCRASESVDSYDINSMHWYQQKPGQAPRLLIYRASHLQSGIPARFSGSGSRTDFTLTISSLEPEDFATYYCQQSNEDPLTFGQGTKLEIK
0.89 fold	2040 MFI	0.051 nM				humanized 02A01-VH2-VK4 (antibody, human IgG1, V domains shown, human IgG1 format; also called 02-VH2-VK4) VH: EVQLVQSGAEVKKPGATLKISCKASGYTFTDFTMHWVQQAPGKGLEWIGLVNPNNGGNIYNQNFKGRATLTVDTSTSTAYMELSSLRSEDTSVYYCGRVPLYTSHGMDYWGQGTLVTVSS VL: EIVLTQSPATLSVSPGERATISCRASESVDSYDINSMHWYQQKPGQAPRLLIYDASNRATGIPARFSGSGSRTDFTLTISSVEPEDFATYYCQQSNEDPLTFGQGTKLEIK
1.14 fold	2680 MFI	0.065 nM	2.1 fold	19.5 nM		humanized 02A01-VH4-VK2 (antibody, human IgG1, V domains shown, human IgG1 format; also called 02-VH4/VK2) VH: EVQLVQSGAEVKKPGATVKISCKASGYTFTDFTMHWVQQAPGKGLEWIGLVNPNNGGNIYAEKFQGRATLTVDTSTSTAYMELSSLRSEDTAVYYCGRVPLYTSHGMDYWGQGTLVTVSS VL: EIVLTQSPATLSVSPGERATISCRASESVDSYDINSMHWYQQKPGQAPRLLIYRASHLQSGIPARFSGSGSRTDFTLTISSVEPEDFATYYCQQSNEDPLTFGQGTKLEIK
1.04 fold	1640 MFI	0.059 nM				humanized 02A01-VH4-VK4 (antibody, human IgG1, V domains shown, human IgG1 format; also called 02-VH4-VK4) VH: EVQLVQSGAEVKKPGATVKISCKASGYTFTDFTMHWVQQAPGKGLEWIGLVNPNNGGNIYAEKFQGRATLTVDTSTSTAYMELSSLRSEDTAVYYCGRVPLYTSHGMDYWGQGTLVTVSS VL: EIVLTQSPATLSVSPGERATISCRASESVDSYDINSMHWYQQKPGQAPRLLIYDASNRATGIPARFSGSGSRTDFTLTISSVEPEDFATYYCQQSNEDPLTFGQGTKLEIK
1.56 fold	2620 MFI	0.089 nM	2.13 fold	19.8 nM		humanized 02A01-VH4-VK3 (antibody, human IgG1, V domains shown, human IgG1 format; also called 02-VH4/VK3) VH: EVQLVQSGAEVKKPGATVKISCKASGYTFTDFTMHWVQQAPGKGLEWIGLVNPNNGGNIYAEKFQGRATLTVDTSTSTAYMELSSLRSEDTAVYYCGRVPLYTSHGMDYWGQGTLVTVSS VL: EIVLTQSPATLSLSPGERATISCRASESVDSYDINSMHWYQQKPGQAPRLLIYRASHLQSGIPARFSGSGSRTDFTLTISSLEPEDFATYYCQQSNEDPLTFGQGTKLEIK
1.16 fold	1560 MFI	0.066 nM				humanized 02A01-VH3-VK4 (antibody, human IgG1, V domains shown, human IgG1 format; also called 02-VH3-VK4) VH: EVQLVQSGAEVKKPGATLKISCKASGYTFTDFTMHWVQQAPGKGLEWIGLVNPNNGGNIYAEKFQGRATLTVDTSTSTAYMELSSLRSEDTSVYYCGRVPLYTSHGMDYWGQGTLVTVSS VL: EIVLTQSPATLSVSPGERATISCRASESVDSYDINSMHWYQQKPGQAPRLLIYDASNRATGIPARFSGSGSRTDFTLTISSVEPEDFATYYCQQSNEDPLTFGQGTKLEIK
1.12 fold	1690 MFI	0.064 nM				humanized 02A01-VH6-VK4 (antibody, human IgG1, V domains shown, human IgG1 format; also called 02-VH6-VK4) VH: EVQLVQSGAEVKKPGATVKISCKASGYTFTDFTMHWVQQAPGKGLEWIGLVNPNNGGNIYAEKFQGRVTLTVDTSTSTAYMELSSLRSEDTAVYYCGRVPLYTSHGMDYWGQGTLVTVSS VL: EIVLTQSPATLSVSPGERATISCRASESVDSYDINSMHWYQQKPGQAPRLLIYDASNRATGIPARFSGSGSRTDFTLTISSVEPEDFATYYCQQSNEDPLTFGQGTKLEIK
0.86 fold	2810 MFI	0.049 nM				humanized 02A01-VH4-VK1 (antibody, human IgG1, V domains shown, human IgG1 format; also called 02-VH4-VK1) VH: EVQLVQSGAEVKKPGATVKISCKASGYTFTDFTMHWVQQAPGKGLEWIGLVNPNNGGNIYAEKFQGRATLTVDTSTSTAYMELSSLRSEDTAVYYCGRVPLYTSHGMDYWGQGTLVTVSS VL: EIVLTQSPATLSVSPGERATISCRASESVDSYDINSMHWYQQKPGQPPRLLIYRASHLQSGIPARFSGSGSRTDFTLTISSVEPEDFATYYCQQSNEDPLTFGQGTKLEIK
